Results reported in patent publication US6841359 (GENERAL HOSPITAL, dated 2005).
Where no end group is shown, it is not given here. The star is where a group is joined. puromycin = COc1ccc(C[C@H](N*)C(=O)N[C@H]2[C@@H](O)[C@H](n3cnc4c(N(C)C)ncnc43)O[C@@H]2CO)cc1; DNA oligonucleotide = not defined here

What was measured:
[1] = biological target: T1, streptavidin (UniProt P22629 37-163, limits assumed); experiment: EMSA, DNA-tagged peptide with free streptavidin; SD 22, n=6
T1 construct: The same protein was used free (EMSA, Biacore, SBIA) and immobilized on a matrix or plate; also called immobilized streptavidin; Ultralink immobilized streptavidin plus
Description: (§1) The dissociation constants of the selected peptides for streptavidin were measuring using an electrophoretic mobility shift assay (EMSA). In this assay, DTP's were incubated with varying amounts of pure streptavidin (Pierce Immunopure Streptavidin, Rockford, Ill.) in streptavidin-binding buffer plus 5% glycerol to increase the density of the solution so that it could collect at the bottom of the gel well. After incubating at room temperature for 20 minutes, the reactions mixtures were moved into the cold room, where they remained for 10 minutes before being carefully loaded onto a 10% polyacrylamide:bisacrylamide (37.5:1, National Diagnostics, Atlanta, Ga.) gel (thickness 0.7 mm, height 16 cm, width 18 cm) containing 2×TBE, 0.1% Triton X-100 and 5% glycerol. The gel, which had been pre-run for 30 minutes at 13 watts, and the running buffer were pre-cooled to 4° C. Then, the gel was run in the cold room at 13 watts, which increased the temperature of the gel to about 20° C. The gel was run for 45 to 120 minutes, depending on the mobility of the particular DTP. Then, the gel was fixed in 10% acetic acid and 10% methanol for 15 minutes, transferred to electrophoresis paper (Ahlstrom, Mt. Holly Springs, Pa.), dried, and analyzed using a PhosphorImager (Molecular Dynamics, Sunnyvale, Calif.).

[2] = biological target: T1, streptavidin; experiment: streptavidin column-binding assay, 35S DNA-tagged peptide on immobilized streptavidin, biotin elution
Description: (§2) The resulting purified DNA-tagged peptides (DTP) were analyzed in a streptavidin column-binding assay, in which ~500 pM ^35S-labeled DTP were mixed with 50 µL of the streptavidin matrix in streptavidin-binding buffer, in a total volume of 300 µL, and incubated for 10 minutes at room temperature with agitation. Then, the contents were loaded onto a chromatography column. The column was drained and washed with 80 column volumes of streptavidin-binding buffer, and then eluted with three consecutive aliquots (3 column volumes each) of streptavidin-binding buffer plus 2 mM biotin over a 15 minute period. All fractions (flow-through, washes, elutions, and irreversibly bound counts) were analyzed by scintillation counting to determine the fraction of DTP that bound streptavidin and eluted with biotin (Table 1).

[3] = biological target: T1, streptavidin; experiment: streptavidin column-binding assay: 35S-labeled DNA-tagged peptide bound to immobilized streptavidin and eluted with biotin
Description: as §2

[4] = biological target: T1, streptavidin; experiment: EMSA, DNA-tagged peptide with free streptavidin; SD 0.91, n=8
Description: as §1

[5] = biological target: T1, streptavidin; experiment: streptavidin column-binding assay, M1 (HPQ to HGA) compared to C4
Description: as §2

[6] = biological target: T1, streptavidin; experiment: EMSA, DNA-tagged peptide with free streptavidin; SD 5.7, n=4
Description: as §1

T1 sequence (P22629 37-163 limits assumed): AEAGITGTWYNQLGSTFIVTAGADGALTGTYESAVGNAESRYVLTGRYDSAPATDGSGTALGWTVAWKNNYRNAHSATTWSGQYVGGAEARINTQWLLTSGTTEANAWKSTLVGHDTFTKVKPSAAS

| Binder | % binding and eluting [2] | % binding [3] | other results |
| --- | --- | --- | --- |
| SB5 (C-terminus joined through puromycin to a short DNA oligonucleotide (DNA-tagged peptide); 35S-methionine label, also called peptide SB5) peptide: MDEKTHWVNVYHPQGDLLVRGHGHDVEALHDQGLHQLDLLVGPPPEVVRALRGEVLGGLRRLVPLDHPQGEALDQARQRPQHLLELHHRALPPALVWRLPPS | 72% |  | Kd [1]: 0.11 µM |
| SB19 C-terminal truncation construct C2 (C-terminus joined through puromycin to a short DNA oligonucleotide (DNA-tagged peptide); 35S-methionine label) peptide: MDEKTTGWRGGHVVEGLAGELEQLRARLEHHPQGQREPLVQEVEDVDEGLVQDLHGVVAGLLDPVEMMSGGCKLG |  | 88% |  |
| SB19 C-terminal truncation construct C1 (C-terminus joined through puromycin to a short DNA oligonucleotide (DNA-tagged peptide); 35S-methionine label) peptide: MDEKTTGWRGGHVVEGLAGELEQLRARLEHHPQGQREPLVQEVEDVDEGLVQDLHGVVAGLLDPVEKLLTDWFKKFKNVSMMSGGCKLG |  | 87% |  |
| SB6 (C-terminus joined through puromycin to a short DNA oligonucleotide (DNA-tagged peptide); 35S-methionine label, also called peptide SB6) peptide: MDEKTHWLNNFEELLARLDGLREGEDHPLVLRHHPQGDGLLDQPLGRHRALDGEVREGDRPLDQGGEEDLGALVDDDGEVLDGLVHVGVHVHDPLVCGCHHH | 49% |  |  |
| SB3 (C-terminus joined through puromycin to a short DNA oligonucleotide (DNA-tagged peptide); 35S-methionine label, also called peptide SB3) peptide: MTRRPTASSSSCVRHLLLRQGEHGHQALEDRDKARHVRLVEGDVEVLGGLDRLARARHEALHPQAGLVHLPLHGGDLGGHLRLVLEAHPQGDRLGLAVHHH | 20% |  |  |
| SB2 (C-terminus joined through puromycin to a short DNA oligonucleotide (DNA-tagged peptide); 35S-methionine label, also called peptide SB2; clone SB2) peptide: MDEKTHCFHPGDHLVRLVEELQALAEGLQRQGGRQPHRLPRRRPHHLQLLLDEAHPQAGPLRERAHQVDGRLLLQHHPQGDRLLQQPQDHPLELVWRLPPS | 48% |  | Kd [4]: 0.0048 µM |
| MDGHVVEGLAGELEQLRARLEHHPQGQREPMMSGGCKLG (One member of the group m27; Assayed as a DNA-tagged peptide) [N1] |  | 69% |  |
| SB19 C-terminal truncation construct C3 (reading uncertain; also: 35S-methionine label) peptide: MDEKTTGWRGGHVVEGLAGELEQLRARLEHHPQGQREPLVQEVEDVDEGLVQMMSGGCKLG-{puromycin-DNA oligonucleotide} |  | 89% |  |
| MDEKTTGWRGGHVVEGLAGELEQLRARLEHHGAGQREPMMSGGCKLG-{puromycin-DNA oligonucleotide} (reading uncertain; also: 35S-methionine label, also called construct M1) [SB19 point mutated peptide M1] |  | 0.065% | fold reduction of activity against construct C4 [5]: ~1000 fold |
| SB1 (C-terminus joined through puromycin to a short DNA oligonucleotide (DNA-tagged peptide); 35S-methionine label, also called peptide SB1; clone SB1) peptide: MDEKTHCTISMNGAVPLVPHHHPQGDPLRLLHRPQPALLVRHPQGDLVALVEHHEGVDRGLVALPELHAEELGEPVGDLVQGPVEQVQGVVDALVWRLPPS | 86% |  | Kd [6]: 0.05 µM |
| N2 (One member of the group m27; Assayed as a DNA-tagged peptide) peptide: MDEGLAGELEQLRARLEHHPQGQREPLVQEVEDVDEGLVQDLHGVVAGLLDPVEKLLTDWFKKFKNVSKDCKMTFYLEMYDWSGGCKLG |  | 30% |  |
| MDEAHPQAGPVDQADARLVQQGALQHHPQGDRMMSGGCKLGTGY-{puromycin-DNA oligonucleotide} (reading uncertain; also: C-terminus joined through puromycin to a short DNA oligonucleotide (DNA-tagged peptide), 35S-methionine label, also called non-selected clone; control peptide) [Non-selected peptide with two HPQ motifs spaced by 19 residues] | 0.16% |  |  |
| SB4 (C-terminus joined through puromycin to a short DNA oligonucleotide (DNA-tagged peptide); 35S-methionine label, also called peptide SB4) peptide: MDEKTHWGISTWRGEPLLHHPQAGRLPLDRRRARHRRILGAEPGGVDHGLRLELLDDHRPLVPDHHPQRGPLQRGDLPQVVPLVRLRHAHVLGLGLAAATIT | 49% |  |  |
| SB7 (C-terminus joined through puromycin to a short DNA oligonucleotide (DNA-tagged peptide); 35S-methionine label, also called peptide SB7) peptide: MDEKTHWFGTLNSFPTHWMSAVGNGKIDCSFNMNLSLNHWLSSGHPDGALDDQLHPQGDALVGRDDGVVQALRLEGQHQHRRLAQRRADRHRQLVWRLPPS | 28% |  |  |
| SB8 (C-terminus joined through puromycin to a short DNA oligonucleotide (DNA-tagged peptide); 35S-methionine label, also called peptide SB8) peptide: MDEKTHCTIELNFSFTHWKLHHHPQGDALLDDGVRPHHPLADEGGGLDQGLGHRRGVVAERLARRDPEVLEGLVERHRGLVPRLRHGGERHAEPLVWRLPPS | 27% |  |  |
